According to publication PMC3585124, “The Interaction of CtIP and Nbs1 Connects CDK and ATM to Regulate HR–Mediated Double-Strand Break Repair” (PLoS Genetics, 2013):

What was measured:
[1] = target: Nbs1 1-335 (UniProt O60934); experiment: co-expression, GST pull-down, anti-Flag blot; settings: reference: wild-type 200-600 fragment
[2] = target: BRCA1 (UniProt P38398); experiment: co-immunoprecipitation, HA-CtIP and Myc-BRCA1; settings: reference: wild type; sites S327
[3] = target: T1, GST-CtIP-His (purified CtIP-WT) (human, UniProt Q99708 1-897, phosphorylated by CDKs when expressed in insect cells (sites in Table S2)); experiment: pull-down; purified Nbs1(1–335) or Nbs1(1–335)-RRHK incubated with purified CtIP-WT or CtIP-12A-CDK coupled to glutathione agarose beads; Western blot with anti-His and anti-GST; settings: both partners purified
T1 construct: CtIP, human; also called GST-CtIP WT
T1 sequence (Q99708 whole entry): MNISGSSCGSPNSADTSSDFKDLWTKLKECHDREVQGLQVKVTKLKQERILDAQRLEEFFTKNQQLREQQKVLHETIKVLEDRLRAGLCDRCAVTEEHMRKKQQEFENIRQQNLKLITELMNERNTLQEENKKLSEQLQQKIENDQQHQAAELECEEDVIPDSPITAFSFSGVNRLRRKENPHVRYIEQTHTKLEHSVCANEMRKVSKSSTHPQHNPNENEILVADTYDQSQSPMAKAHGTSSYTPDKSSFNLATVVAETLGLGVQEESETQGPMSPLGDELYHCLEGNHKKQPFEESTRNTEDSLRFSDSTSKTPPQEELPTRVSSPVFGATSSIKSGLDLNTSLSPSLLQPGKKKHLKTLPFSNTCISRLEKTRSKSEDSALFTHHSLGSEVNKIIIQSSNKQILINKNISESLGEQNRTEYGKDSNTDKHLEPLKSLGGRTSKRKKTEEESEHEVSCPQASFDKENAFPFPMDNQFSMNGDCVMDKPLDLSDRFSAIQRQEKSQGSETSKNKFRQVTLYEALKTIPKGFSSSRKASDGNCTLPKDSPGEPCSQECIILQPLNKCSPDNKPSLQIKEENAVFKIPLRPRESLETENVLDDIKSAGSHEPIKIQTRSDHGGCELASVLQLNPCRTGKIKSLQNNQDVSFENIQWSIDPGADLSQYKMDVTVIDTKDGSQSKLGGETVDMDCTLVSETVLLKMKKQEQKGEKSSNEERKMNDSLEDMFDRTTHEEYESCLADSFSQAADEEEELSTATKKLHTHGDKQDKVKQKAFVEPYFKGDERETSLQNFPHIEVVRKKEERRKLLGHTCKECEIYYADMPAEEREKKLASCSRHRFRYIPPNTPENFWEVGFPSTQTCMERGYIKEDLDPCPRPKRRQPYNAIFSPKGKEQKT

In the case of “CtIP 200-600 (from UniProt Q99708) 5A-CDK”, the “binding against the reference” value ([1]; sites S233,T245,S276,T315,S347) is reported as “lost”.

In the case of “CtIP 200-600 (from UniProt Q99708) S233A/T245A/S276A (printed S233A/S245A/S276A)”, the “binding against the reference” value ([1]; sites S233,T245,S276) is reported as “weaker”.

With “CtIP 200-600 (from UniProt Q99708) T245A/S276A/S347A” the “binding against the reference” value ([1]; sites T245,S276,S347) was “weaker”.

In the case of “CtIP 200-600 (from UniProt Q99708) T315A/S347A”, the “binding against the reference” value ([1]; sites T315,S347) is reported as “weaker”.

With CtIP (from UniProt Q99708) S327A the “binding against the reference” value [2] was “weaker”.

B1: Purified Nbs1(1–335) (domain or fragment, human, UniProt O60934 1-335, looked up)
chain: MWKLLPAAGPAGGEPYRLLTGVEYVVGRKNCAILIENDQSISRNHAVLTANFSVTNLSQTDEIPVLTLKDNSKYGTFVNEEKMQNGFSRTLKSGDGITFGVFGSKFRIEYEPLVACSSCLDVSGKTALNQAILQLGGFTVNNWTEECTHLVMVSVKVTIKTICALICGRPIVKPEYFTEFLKAVESKKQPPQIESFYPPLDEPSIGSKNVDLSGRQERKQIFKGKTFIFLNAKQHKKLSSAVVFGGGEARLITEENEEEHNFFLAPGTCVVDTGITNSQTLIPDCQKKWIQSIMDMLQRQGLRPIPEAEIGLAVIFMTTKNYCDPQGHPSTGLKT
notes: also called Nbs1-WT-N; source: Sf9 insect cells, purified (Ni-NTA column followed by MonoQ column); not shown: His, C-terminal, kept
B1: binds [3].
